According to patent US20260035468A1 (INSTITUT NATIONAL DE LA SANT ET DE LA RECHERCHE M DICALE, published 2026):

B1: Mab 9B2 (antibody, V domains shown)
VH: QVQLQQSGAELAKPGASVKLSCKASGYTFTRYWMHWVKQRPGQGLEWIGHINPSSGYTKYNQKFKDKATLTADKSSSTAYMQLSSLTYEDSAVYYCAREVYYYGSSYGDFDYWGQGTTLTVSS
VL: QIVLTQSPAIMSASPGEKVTISCSASSSVSYMYWYQQKPGSSPKPWIYRTSNLASGVPARFSGSGSGTSYSLTISSMEAEDAATYYCQQYHSYPLTFGAGTKLELK
notes: Mouse hybridoma antibody tested as clone supernatant; also called 9B2 mAb; clone 1
B2: Mab 1G10G4 (antibody, V domains shown)
VH: QVQLQQSGAELARPGASVKMSCKASGYTFTSYTMHWVKQRPGQGLEWIGYINPSSGYTKYNQKFKDKATLTADKSSSTAYMQLSSLTSEDSAVYYCARAEGLRAWFAYWGQGTLVTVSA
VL: DIVMTQSQKFMSTSVGDRVSVTCKASQNVGTNVAWYQQKPGQSPKALIYSASYRYSGVPDHFTGSGSGTDFTLTIINVQSEDLAEYFCQQYNSYPYTFGGGTKLEIK
notes: Mouse hybridoma antibody tested as clone supernatant; also called 1G10G4 mAb; clone 3

Target: T1, β8 chain of αvβ8 integrin (Itgβ8) expressed on human tumor Treg cells (human, UniProt P26012 43-769; P06756 31-1048)
T1 construct: whole, on cells; also called Itgb8 chain on human Treg cells; human Itgβ8
Assay: staining of cells of one fresh human colonic tumor (data not shown)

T1 sequence (P26012 43-769, chain 1 of 2): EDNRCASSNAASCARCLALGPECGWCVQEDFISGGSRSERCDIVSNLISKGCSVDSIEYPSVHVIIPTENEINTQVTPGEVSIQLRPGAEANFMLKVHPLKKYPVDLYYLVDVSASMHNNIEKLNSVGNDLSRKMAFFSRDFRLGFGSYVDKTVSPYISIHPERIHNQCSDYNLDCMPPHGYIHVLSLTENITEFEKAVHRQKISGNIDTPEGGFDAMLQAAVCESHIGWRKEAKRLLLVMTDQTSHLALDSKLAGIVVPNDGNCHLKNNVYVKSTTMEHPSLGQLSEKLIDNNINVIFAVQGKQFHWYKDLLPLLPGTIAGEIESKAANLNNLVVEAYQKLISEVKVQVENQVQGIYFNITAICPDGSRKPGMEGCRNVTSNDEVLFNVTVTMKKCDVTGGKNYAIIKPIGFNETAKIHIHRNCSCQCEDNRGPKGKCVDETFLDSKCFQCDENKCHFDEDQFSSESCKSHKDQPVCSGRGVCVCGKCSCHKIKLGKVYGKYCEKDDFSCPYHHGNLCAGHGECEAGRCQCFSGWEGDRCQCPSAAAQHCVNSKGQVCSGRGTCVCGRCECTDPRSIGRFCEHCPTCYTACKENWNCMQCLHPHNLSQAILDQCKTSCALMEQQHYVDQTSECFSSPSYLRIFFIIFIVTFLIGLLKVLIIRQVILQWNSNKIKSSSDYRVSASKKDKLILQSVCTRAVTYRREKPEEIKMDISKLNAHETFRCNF
T1 sequence (P06756 31-1048, chain 2 of 2): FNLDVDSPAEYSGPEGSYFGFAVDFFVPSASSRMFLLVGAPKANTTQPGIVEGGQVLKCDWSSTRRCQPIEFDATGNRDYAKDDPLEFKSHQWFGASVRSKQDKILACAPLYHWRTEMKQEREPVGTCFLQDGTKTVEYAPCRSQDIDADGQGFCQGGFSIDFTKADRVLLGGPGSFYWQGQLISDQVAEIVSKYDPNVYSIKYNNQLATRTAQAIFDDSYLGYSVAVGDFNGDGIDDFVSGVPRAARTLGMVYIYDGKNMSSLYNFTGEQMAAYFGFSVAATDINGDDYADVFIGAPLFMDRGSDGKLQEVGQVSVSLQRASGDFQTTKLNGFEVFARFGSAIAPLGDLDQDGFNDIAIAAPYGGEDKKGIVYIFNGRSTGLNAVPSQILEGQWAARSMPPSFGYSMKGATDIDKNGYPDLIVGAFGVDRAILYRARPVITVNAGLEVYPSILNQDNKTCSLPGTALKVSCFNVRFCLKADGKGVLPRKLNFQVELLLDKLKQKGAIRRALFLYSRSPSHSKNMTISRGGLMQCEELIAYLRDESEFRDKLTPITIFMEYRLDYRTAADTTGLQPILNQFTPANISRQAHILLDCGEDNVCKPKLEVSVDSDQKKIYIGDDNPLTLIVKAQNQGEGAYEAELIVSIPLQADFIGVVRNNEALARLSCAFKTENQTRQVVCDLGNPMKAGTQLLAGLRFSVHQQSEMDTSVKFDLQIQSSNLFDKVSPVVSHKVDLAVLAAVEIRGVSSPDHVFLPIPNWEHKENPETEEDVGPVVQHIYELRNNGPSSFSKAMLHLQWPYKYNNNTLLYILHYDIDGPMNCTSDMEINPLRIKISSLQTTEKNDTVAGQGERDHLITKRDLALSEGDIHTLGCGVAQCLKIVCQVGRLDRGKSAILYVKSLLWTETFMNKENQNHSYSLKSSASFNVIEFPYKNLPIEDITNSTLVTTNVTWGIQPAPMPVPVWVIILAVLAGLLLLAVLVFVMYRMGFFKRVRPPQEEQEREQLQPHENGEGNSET

Binder	binding result
B1	binds
B2	binds
